The target of assay [1] is soluble gB truncated at amino acid 749, gB(749t) (herpes simplex virus 1 (HSV-1), strain KOS) (UniProt P06437). The experiment in a line: native gel or EMSA. In general terms: In EMSA bound probe runs differently from free probe, usually more slowly.
For assay [2] the target is unchanged. Put plainly: SEC. On the technique in general: SEC sorts molecules by how far they enter the pores of the column.
Assay [3] addresses soluble gB truncated at amino acid 759, gB(759t) (herpes simplex virus 1 (HSV-1), strain KOS) (UniProt P06437). The experiment in a line: native gel or EMSA.
Assay [4] shares this target. Put plainly: SEC.
The target in assay [5] is soluble gB truncated at amino acid 730, gB(730t) (herpes simplex virus 1 (HSV-1)) (UniProt P06437). The experiment in a line: SEC.
The target in assay [6] is soluble gB truncated at amino acid 739, gB(739t) (herpes simplex virus 1 (HSV-1), strain KOS) (UniProt P06437). Put plainly: native gel or EMSA.
For assay [7] the target is unchanged. The experiment in a line: SEC.
Assay [8] concerns the target soluble gB truncated at amino acid 773, gB(773t) (herpes simplex virus 1 (HSV-1), strain KOS) (UniProt P06437). The experiment in a line: native gel or EMSA.
The target is the same in assay [9]. The experiment in a line: SEC.

Among the data in paper PMC3509434 are stoichiometry N values, retold here.

What is called stoichiometry N is the number of molecules, sites or subunits per partner or assembly.

Consider “soluble gB truncated at amino acid 749, gB(749t) (from UniProt P06437 31-749) (domain or fragment)”, for which the stoichiometry N in [1] and in assay [2] was 3 in each case.

Take “soluble gB truncated at amino acid 759, gB(759t) (from UniProt P06437 31-759) (domain or fragment)”: the stoichiometry N in [3] and in assay [4] was 3 each time. “soluble gB truncated at amino acid 730, gB(730t) (from UniProt P06437 31-730) (domain or fragment)” came in with a stoichiometry N in [5] of 3. With “soluble gB truncated at amino acid 739, gB(739t) (from UniProt P06437 31-739) (domain or fragment)”, the stoichiometry N in [6] and in assay [7] was 3 throughout. For “soluble gB truncated at amino acid 773, gB(773t) (from UniProt P06437 31-773) (domain or fragment)”, the stoichiometry N in assay [8] and in assay [9] was 3 in each case.
